Molecular target: scArc-Vκ(E5)-HA fusion protein (Vκ(E5) fused to the C-terminus of scArc; pIE3AVκ(E5) series constructs) (phage P22)
Assay: emulsion expression of the pIE3a^4AVκ(E5)-derived template; capture on 3F10-coated PCR tubes; quantitative PCR

percent of the total input genetic element DNA recovered in complex with the fusion protein on the mAb-coated surface: > 23%
Substance: αHA rat mAb 3F10 (Roche), High Affinity anti-HA monoclonal antibody

Reference: patent US20090176209A1
